Laboratory results reported in publication PMC2773002, “Differential Role of Human Choline Kinase α and β Enzymes in Lipid Metabolism: Implications in Cancer Onset and Treatment” (PLoS ONE, 2009).

Assays:
[1] = substrate: C[N+](C)(C)CCO; assay: Michaelis-Menten kinetics (Km), radiolabelled substrate, extracts of E. coli expressing the recombinant enzyme; type: biochemical, Homo sapiens; details: ATP, MgCl2
[2] = substrate: NCCO; assay: as above; type: biochemical, Homo sapiens; details: ATP, MgCl2

B1: ChoKβ (choline kinase beta, ChoKβ1) (Homo sapiens) (protein)
chain: AAEATAVAGSGAVGGCLAKDGLQQSKCPDTTPKRRRASSLSRDAERRAYQWCREYLGGAWRRVQPEELRVYPVSGGLSNLLFRCSLPDHLPSVGEEPREVLLRLYGAILQGVDSLVLESVMFAILAERSLGPQLYGVFPEGRLEQYIPSRPLKTQELREPVLSAAIATKMAQFHGMEMPFTKEPHWLFGTMERYLKQIQDLPPTGLPEMNLLEMYSLKDEMGNLRKLLESTPSPVVFCHNDIQEGNILLLSEPENADSLMLVDFEYSSYNYRGFDIGNHFCEWVYDYTHEEWPFYKARPTDYPTQEQQLHFIRHYLAEAKKGETLSQEEQRKLEEDLLVEVSRYALASHFFWGLWSILQASMSTIEFGYLDYAQSRFQFYFQQKGQLTSVHSSS
notes: human ChoKβ1 expressed in E. coli DH5α (extracts)
[1]
  Km: 570 µM
[2]
  Km: 2010 µM
